Series [1] deals with T1, Hot1 (Saccharomyces cerevisiae BY4741, UniProt Q03213 1-719).
T1 sequence: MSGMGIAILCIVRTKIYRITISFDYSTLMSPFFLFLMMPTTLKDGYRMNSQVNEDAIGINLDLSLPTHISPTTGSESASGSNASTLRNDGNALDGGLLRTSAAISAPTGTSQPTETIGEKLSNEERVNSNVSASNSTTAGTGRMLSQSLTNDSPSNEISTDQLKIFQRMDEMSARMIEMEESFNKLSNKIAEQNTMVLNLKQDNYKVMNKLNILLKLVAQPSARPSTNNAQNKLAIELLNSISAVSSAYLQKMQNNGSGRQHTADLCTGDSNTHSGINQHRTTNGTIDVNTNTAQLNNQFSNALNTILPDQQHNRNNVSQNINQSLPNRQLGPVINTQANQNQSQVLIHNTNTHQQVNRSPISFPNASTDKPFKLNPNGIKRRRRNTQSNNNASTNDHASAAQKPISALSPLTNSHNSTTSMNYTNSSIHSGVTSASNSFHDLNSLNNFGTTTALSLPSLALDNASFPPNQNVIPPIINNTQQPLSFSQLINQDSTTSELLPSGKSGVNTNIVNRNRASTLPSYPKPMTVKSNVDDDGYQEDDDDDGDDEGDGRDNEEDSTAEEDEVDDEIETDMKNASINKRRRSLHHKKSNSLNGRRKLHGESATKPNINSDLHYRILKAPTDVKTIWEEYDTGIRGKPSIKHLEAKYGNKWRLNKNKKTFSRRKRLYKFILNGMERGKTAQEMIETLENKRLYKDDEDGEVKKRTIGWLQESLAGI
Description: EMSA. (In general: Mobility shift assays separate free from complexed probe on a gel.)

Series [2] deals with T1, Hot1. Put plainly: competition.

Positions count from the first letter of the chain named.

This is an account of results in paper PMC4462951.

B1: STL1 promoter HoRE, E6 probe (dsDNA)
DNA 1: CTATTCCACCGCATTTGGCCCATTTGGCTCACTTTGACTCAACTTGCGTCATTTTAACTGATATG
DNA 2: CATATCAGTTAAAATGACGCAAGTTGAGTCAAAGTGAGCCAAATGGGCCAAATGCGGTGGAATAG
Regarding B1, the binding result in the series with Hot1 [1] is “binds”.

B2: RM9 (E6 with mutated HoRE repeats) (dsDNA)
DNA 1: B1 DNA 1 with T15C, C19T, T24C, C28T, T34C, C38T
DNA 2: B1 DNA 2 with G28A, A32G, G38A, A42G, G47A, A51G
For the molecule B2, in the series with Hot1 [2], the binding result was “no binding”.
